T1: cynomolgus ABCC4 (cynomolgus, UniProt A0A2K5W0Z4 1-1325)
T1 construct: whole, on cells; Expressed on murine C6 cells stably transfected with cynomolgus ABCC4 cDNA with C-terminal FLAG tag; not shown: C-terminal fused FLAG tag
T1 sequence: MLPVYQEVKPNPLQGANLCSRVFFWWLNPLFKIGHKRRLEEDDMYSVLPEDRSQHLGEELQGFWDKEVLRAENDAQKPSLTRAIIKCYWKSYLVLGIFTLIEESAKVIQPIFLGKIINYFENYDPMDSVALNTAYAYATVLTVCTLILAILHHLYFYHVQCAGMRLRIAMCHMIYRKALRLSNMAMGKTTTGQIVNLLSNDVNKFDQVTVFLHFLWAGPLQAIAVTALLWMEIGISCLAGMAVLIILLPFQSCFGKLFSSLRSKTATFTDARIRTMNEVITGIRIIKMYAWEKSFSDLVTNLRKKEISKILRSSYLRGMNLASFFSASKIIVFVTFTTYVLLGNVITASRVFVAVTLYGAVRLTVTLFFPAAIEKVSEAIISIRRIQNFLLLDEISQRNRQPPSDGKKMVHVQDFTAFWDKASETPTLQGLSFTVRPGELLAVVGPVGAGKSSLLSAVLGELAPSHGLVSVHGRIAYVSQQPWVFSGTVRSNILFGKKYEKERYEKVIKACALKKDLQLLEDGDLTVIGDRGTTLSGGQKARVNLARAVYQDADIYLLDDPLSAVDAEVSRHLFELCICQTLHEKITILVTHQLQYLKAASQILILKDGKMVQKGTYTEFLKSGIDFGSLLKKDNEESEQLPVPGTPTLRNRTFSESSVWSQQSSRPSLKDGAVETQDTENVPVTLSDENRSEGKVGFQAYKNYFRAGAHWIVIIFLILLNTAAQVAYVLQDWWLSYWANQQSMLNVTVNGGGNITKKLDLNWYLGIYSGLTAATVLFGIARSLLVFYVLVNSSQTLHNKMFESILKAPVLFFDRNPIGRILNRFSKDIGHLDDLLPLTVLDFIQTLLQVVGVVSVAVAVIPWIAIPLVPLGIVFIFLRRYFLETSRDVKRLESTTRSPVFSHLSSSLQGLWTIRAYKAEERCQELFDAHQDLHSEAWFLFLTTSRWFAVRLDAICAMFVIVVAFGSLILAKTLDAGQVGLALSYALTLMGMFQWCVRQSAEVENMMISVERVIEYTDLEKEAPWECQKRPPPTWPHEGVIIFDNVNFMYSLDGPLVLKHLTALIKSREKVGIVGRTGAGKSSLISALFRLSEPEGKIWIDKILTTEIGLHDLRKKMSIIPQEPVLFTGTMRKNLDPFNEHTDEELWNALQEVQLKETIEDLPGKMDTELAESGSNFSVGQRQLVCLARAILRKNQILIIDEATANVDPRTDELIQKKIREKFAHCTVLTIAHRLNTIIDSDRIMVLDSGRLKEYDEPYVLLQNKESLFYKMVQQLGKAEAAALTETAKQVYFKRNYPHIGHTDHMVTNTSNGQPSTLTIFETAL

B1: C4.1139 (antibody, V domains shown)
VH: EVQLVESDGGLVQPGRSLKLSCAASGFTFSDYYMAWVRQAPTKGLYWVASISYDGSTTYYRDSVKGRFTISRDNAKSTLYLQMGSLRSEDTATYYCARLSIRYKGVMDAWGRGASVTVSS
VL: DVVMTQSPSNLAASPGESVSINCKASKSIGKFLAWYQQKPGRPNKLLIYSGSTLQSGTPSRFSGSGSGTDFTLTIRNLEPGDFGLYYCQHHIEYPPTFGPGTKLELK
B2: C4.1059 (antibody, V domains shown)
VH: QVQLLQSGAALVKPGASVKMSCKPSGYTFTDYWVSWVKQSHGKSLEWIGEIYPNNGATNFNEKFKGKATLTVDKSTSTAYMELSRLTSEDSAIYYCPSRKYGYNWNFDYWGQGTMVTVSS
VL: DIVLTQSPALAVSLGQRATISCWASQSVSISRYNLMHWYQQKPGQQPKLLIYRASNLASGIPARFSGSGSGTDFTLTINPVQADDIATYYCQQSGESPWTFGGGTKLELK
B3: C4.1148 (antibody, V domains shown)
VH: EVQLVESDGGLVQPGRSLKLSCAASGFTFSDYYMAWVRQAPPKGLEWVATISYDAFTTYYRDSVKGRFTISRDNAKTILFLQMDSLRSEDTATYYCIRLSTRYKGVMDAWGHGASVTVSS
VL: DIQMTQSPSNLAASPGESVSINCKASETIYKYLAWYQQKPGRTNKLLIYSGSTLQSGTPSRFSGSGSGTDFTLTIRNLEPEDFGRYYCQHHVEYPPTFGAGTKLELK

target: T1, cynomolgus ABCC4; assay: FACS, different C6.cC4 cell line stably expressing cynomolgus ABCC4
Method: Antibody binding to cells was evaluated by flow cytometry. Murine C6 cells stably transfected to express human or cynomolgus ABCC4 were washed once in flow cytometry buffer (PBS+2% FBS+0.02% sodium azide), resuspended at 2×10\hat{ }6 cells/mL in flow cytometry buffer, and dispensed into 96-well microtiter plates at 0.1 mL/well. Recombinant antibodies were added to cells at 5 ug/mL for initial binding confirmation, or serially diluted from 100 ug/mL in flow cytometry buffer. After incubating cells on ice for 30 min, cells were washed twice with flow cytometry buffer. Bound antibody was detected with PE-labeled F(ab′)₂ fragment goat anti-human IgG (Jackson ImmunoResearch) and evaluated on an Attune N×T flow cytometer. EC50 is calculated to be the concentration of antibody that gives half maximal response.

Binder	binding result
B1	no binding (tested: Rmax (MFI) below background level)
B2	no binding (tested: Rmax (MFI) below background level)
B3	no binding (tested: Rmax (MFI) below background level)
